The source of these data is PMC10786891, “Massively parallel profiling of RNA-targeting CRISPR-Cas13d”.

First the molecules themselves.
T1: EsCas13d, nuclease-dead (Eubacterium siraeum, UniProt B0MS50, R295A;H300A;R849A;H854A)
T1 sequence: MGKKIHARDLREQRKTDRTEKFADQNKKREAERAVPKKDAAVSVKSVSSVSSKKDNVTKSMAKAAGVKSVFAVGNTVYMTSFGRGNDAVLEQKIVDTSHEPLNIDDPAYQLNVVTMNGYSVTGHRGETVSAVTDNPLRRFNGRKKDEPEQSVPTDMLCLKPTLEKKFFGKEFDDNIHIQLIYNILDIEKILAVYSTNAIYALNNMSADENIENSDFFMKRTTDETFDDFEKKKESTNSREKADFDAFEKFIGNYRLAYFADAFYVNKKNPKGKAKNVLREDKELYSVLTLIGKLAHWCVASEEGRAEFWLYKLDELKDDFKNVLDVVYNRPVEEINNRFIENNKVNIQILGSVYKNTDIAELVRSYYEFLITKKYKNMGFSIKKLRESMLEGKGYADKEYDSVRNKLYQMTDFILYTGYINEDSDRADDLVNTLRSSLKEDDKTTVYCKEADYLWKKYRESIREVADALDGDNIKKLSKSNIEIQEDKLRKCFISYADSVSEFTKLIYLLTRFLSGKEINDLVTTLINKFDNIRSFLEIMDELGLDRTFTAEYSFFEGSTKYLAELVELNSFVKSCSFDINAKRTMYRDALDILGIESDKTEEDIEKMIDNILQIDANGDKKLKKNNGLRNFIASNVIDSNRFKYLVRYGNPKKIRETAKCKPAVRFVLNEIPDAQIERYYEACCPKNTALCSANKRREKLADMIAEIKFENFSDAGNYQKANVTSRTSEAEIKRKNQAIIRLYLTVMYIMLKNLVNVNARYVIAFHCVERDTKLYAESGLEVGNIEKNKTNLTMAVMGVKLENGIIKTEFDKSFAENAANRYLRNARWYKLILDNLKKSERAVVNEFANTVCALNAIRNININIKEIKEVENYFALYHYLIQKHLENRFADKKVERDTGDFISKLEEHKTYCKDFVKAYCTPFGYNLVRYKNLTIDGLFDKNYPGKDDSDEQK

B1: target 1 insU 3' of 14,insA 3' of 4 (mixed)
RNA 1: CACCCGUGCAAAAAUGCAGGGGUCUAAAACUGAGCGGAUAACCUCUCUAUGG
RNA 2: GGGAAUGGAUCCACAUCUACGAAUUCGUACCAUAGAGAUGGUUAUCCGCAUCACCGAGAUCGGAAGAGCACACGU
B2: target 1 C7U,A18G (mixed)
RNA 1: B1 RNA 1
RNA 2: GGGAAUGGAUCCACAUCUACGAAUUCGUACCAUGGAGAGGUUAUUCGCUCACCGAGAUCGGAAGAGCACACGU
B3: target 1 insA 3' of 7,insU 3' of 4 (mixed)
RNA 1: B1 RNA 1
RNA 2: B1 RNA 2 with U39G, G41U, U43A, A44U, U45C, C46A, A50U
B4: target 2 MT 5'PFS CUG 3'PFS UAU (mixed)
RNA 1: CACCCGUGCAAAAUUGCAGGGGUCUAAAACCUUCUCCAAAUUGUUUCAUCCU
RNA 2: GGGAAUGGAUCCACAUCUACGAAUUCCUGAGGAUGAAACAAUUUGGAGAAGUAUAGAUCGGAAGAGCACACGU
B5: target 2 MT 5'PFS GAC 3'PFS AUG (mixed)
RNA 1: B4 RNA 1
RNA 2: B4 RNA 2 with C27G, U28A, G29C, U52A, A53U, U54G
B6: target 2 MT 5'PFS UGC 3'PFS AAG (mixed)
RNA 1: B4 RNA 1
RNA 2: B4 RNA 2 with C27U, U28G, G29C, U52A, U54G
B7: target 2 MT 5'PFS GUC 3'PFS AGC (mixed)
RNA 1: B4 RNA 1
RNA 2: B4 RNA 2 with C27G, G29C, U52A, A53G, U54C
B8: target 2 MT 5'PFS CUC 3'PFS AUC (mixed)
RNA 1: B4 RNA 1
RNA 2: B4 RNA 2 with G29C, U52A, A53U, U54C
B9: target 2 MT 5'PFS GAC 3'PFS AUC (mixed)
RNA 1: B4 RNA 1
RNA 2: B4 RNA 2 with C27G, U28A, G29C, U52A, A53U, U54C
B10: target 2 MT 5'PFS UGC 3'PFS UCG (mixed)
RNA 1: B4 RNA 1
RNA 2: B4 RNA 2 with C27U, U28G, G29C, A53C, U54G
B11: target 2 MT 5'PFS UGC 3'PFS AAC (mixed)
RNA 1: B4 RNA 1
RNA 2: B4 RNA 2 with C27U, U28G, G29C, U52A, U54C
B12: target 2 MT 5'PFS UGG 3'PFS AUG (mixed)
RNA 1: B4 RNA 1
RNA 2: B4 RNA 2 with C27U, U28G, U52A, A53U, U54G
B13: target 2 MT 5'PFS GUC 3'PFS AGG (mixed)
RNA 1: B4 RNA 1
RNA 2: B4 RNA 2 with C27G, G29C, U52A, A53G, U54G
B14: target 2 MT 5'PFS UGG 3'PFS AUC (mixed)
RNA 1: B4 RNA 1
RNA 2: B4 RNA 2 with C27U, U28G, U52A, A53U, U54C
B15: target 2 MT 5'PFS CUC 3'PFS AUA (mixed)
RNA 1: B4 RNA 1
RNA 2: B4 RNA 2 with G29C, U52A, A53U, U54A
B16: target 2 MT 5'PFS UGC 3'PFS AAA (mixed)
RNA 1: B4 RNA 1
RNA 2: B4 RNA 2 with C27U, U28G, G29C, U52A, U54A
B17: target 2 MT 5'PFS GAU 3'PFS AAC (mixed)
RNA 1: B4 RNA 1
RNA 2: B4 RNA 2 with C27G, U28A, G29U, U52A, U54C
B18: target 2 MT 5'PFS UGC 3'PFS UCA (mixed)
RNA 1: B4 RNA 1
RNA 2: B4 RNA 2 with C27U, U28G, G29C, A53C, U54A
B19: target 2 MT 5'PFS CCU 3'PFS UAG (mixed)
RNA 1: B4 RNA 1
RNA 2: B4 RNA 2 with U28C, G29U, U54G
B20: target 2 MT 5'PFS CUC 3'PFS AUU (mixed)
RNA 1: B4 RNA 1
RNA 2: B4 RNA 2 with G29C, U52A, A53U
B21: target 2 MT 5'PFS GCA 3'PFS CGA (mixed)
RNA 1: B4 RNA 1
RNA 2: B4 RNA 2 with C27G, U28C, G29A, U52C, A53G, U54A
B22: target 2 MT 5'PFS AUU 3'PFS AUG (mixed)
RNA 1: B4 RNA 1
RNA 2: B4 RNA 2 with C27A, G29U, U52A, A53U, U54G
B23: target 2 MT 5'PFS GAC 3'PFS AUU (mixed)
RNA 1: B4 RNA 1
RNA 2: B4 RNA 2 with C27G, U28A, G29C, U52A, A53U
B24: target 2 MT 5'PFS GCA 3'PFS CGC (mixed)
RNA 1: B4 RNA 1
RNA 2: B4 RNA 2 with C27G, U28C, G29A, U52C, A53G, U54C
B25: target 2 MT 5'PFS UAU 3'PFS AAU (mixed)
RNA 1: B4 RNA 1
RNA 2: B4 RNA 2 with C27U, U28A, G29U, U52A
B26: target 2 MT 5'PFS UGA 3'PFS CUC (mixed)
RNA 1: B4 RNA 1
RNA 2: B4 RNA 2 with C27U, U28G, G29A, U52C, A53U, U54C
B27: target 2 MT 5'PFS GGA 3'PFS UUG (mixed)
RNA 1: B4 RNA 1
RNA 2: B4 RNA 2 with C27G, U28G, G29A, A53U, U54G
B28: target 2 MT 5'PFS UGA 3'PFS CUA (mixed)
RNA 1: B4 RNA 1
RNA 2: B4 RNA 2 with C27U, U28G, G29A, U52C, A53U, U54A
B29: target 2 MT 5'PFS GGA 3'PFS UUC (mixed)
RNA 1: B4 RNA 1
RNA 2: B4 RNA 2 with C27G, U28G, G29A, A53U, U54C
B30: target 2 MT 5'PFS GAU 3'PFS AAU (mixed)
RNA 1: B4 RNA 1
RNA 2: B4 RNA 2 with C27G, U28A, G29U, U52A
B31: target 2 MT 5'PFS GAU 3'PFS AAG (mixed)
RNA 1: B4 RNA 1
RNA 2: B4 RNA 2 with C27G, U28A, G29U, U52A, U54G
B32: target 2 MT 5'PFS GGA 3'PFS UUU (mixed)
RNA 1: B4 RNA 1
RNA 2: B4 RNA 2 with C27G, U28G, G29A, A53U
B33: target 2 MT 5'PFS GUC 3'PFS AGA (mixed)
RNA 1: B4 RNA 1
RNA 2: B4 RNA 2 with C27G, G29C, U52A, A53G, U54A
B34: target 2 MT 5'PFS CUC 3'PFS AUG (mixed)
RNA 1: B4 RNA 1
RNA 2: B4 RNA 2 with G29C, U52A, A53U, U54G
B35: target 2 MT 5'PFS GGA 3'PFS UUA (mixed)
RNA 1: B4 RNA 1
RNA 2: B4 RNA 2 with C27G, U28G, G29A, A53U, U54A
B36: target 2 MT 5'PFS GAU 3'PFS AAA (mixed)
RNA 1: B4 RNA 1
RNA 2: B4 RNA 2 with C27G, U28A, G29U, U52A, U54A

What is called Kd is the free concentration of one partner at which half of the binding sites on the other are occupied at equilibrium, for simple one-to-one binding. Low values mean higher affinity, high ones lower affinity.

Substitutions are numbered along the chain they refer to. Numbers in names are those of the source.

The data set deals with T1, EsCas13d, nuclease-dead. Description: crRNA (strand 1, pre-loaded); Mg2+; 40 mM Tris-HCl pH 7.5, 150 mM NaCl, 6 mM MgCl2, 1 mM DTT, 0.1% Tween-20, 0.2 mg/ml BSA; 25 C; 10 min per concentration, then washed. To be noted: tags: His6-TwinStrep-SUMO cleaved; N-terminal SNAP kept (SNAP-Surface 488); label: 3' end held by stalled T7 RNA polymerase.
The molecule B1 registered a Kd of 26 ± 4 nM.
As for B2, the figure is roughly 70 nM; as for B3, 6.3 ± 0.5 nM.
The figure for B4 is 5.3 ± 1.2 nM.
The molecule B5 yielded a Kd of 22 ± 5 nM.
The figure for B6 is 15 ± 3.3 nM; for B7 it is 13.2 ± 2.3 nM.
As for B8, the figure is 1.91 ± 0.31 nM; as for B9, 13.5 ± 2.6 nM; as for B10, 60 ± 24 nM.
In turn, B11 returned a Kd of 13 ± 4 nM.
The figure for B12 is 5.2 ± 0.5 nM; for B13 it is 15.3 ± 2.1 nM; for B14 it is 5.5 ± 0.6 nM.
As for B15, the figure is 2.11 ± 0.28 nM.
B16: the Kd turned out to be 14 ± 5 nM.
As for B17, the figure is 16 ± 5 nM.
As for B18, the figure is 10.4 ± 1.8 nM; as for B19, 1.16 ± 0.21 nM.
As for B20, the figure is 2.2 ± 0.4 nM; as for B21, 8.4 ± 1.1 nM; as for B22, 7.5 ± 0.8 nM.
B23 gave an equilibrium dissociation constant (Kd) of 12.1 ± 2.1 nM.
B24: binding was put at a Kd of 13.1 ± 1.9 nM.
With B25, the affinity, expressed as Kd, was 16.2 ± 1.5 nM.
As for B26, the figure is 47 ± 20 nM.
B27 showed a Kd of 18.3 ± 2.7 nM.
The figure for B28 is 8.7 ± 1.1 nM; for B29 it is 28 ± 6 nM; for B30 it is 9.1 ± 1.6 nM.
The figure for B31 is 11.8 ± 1.6 nM.
As for B32, the figure is 41 ± 9 nM; as for B33, 16.8 ± 2.8 nM.
Molecule B34 had a Kd of 1.74 ± 0.26 nM. This Kd is about 9.7-fold lower than that of the molecule before.
The figure for B35 is 18.1 ± 3.5 nM.
As for B36, the figure is 6.9 ± 1 nM.
